Data from publication PMC11734626.

Target: T7-tagged TanGIBLE (Tandem BAG6 domain I BUILD linked entity) (human) (UniProt P46379)
Assay: co-IP

Flag-tagged IL-2 receptor α subunit without its signal sequence (Flag-IL-2Rα ΔSS) (domain or fragment)
fold co-precipitated against BAG6 N200, with MG-132: 2.4 fold | fold co-precipitated against BAG6 N200, without MG-132: 5.6 fold
